Assay results from article PMC8487046.

Key:
[1] = target: full‐length SREC‐II at the surface of stably transfected CHO cells (UniProt Q96GP6); assay: flow cytometry on cells; SREC-II-overexpressing CHO cells against nontransfected CHO cells, on ice, PBS with 3% BSA; C1q 80 µg/mL (40 min, detected with anti-C1q and Cy-3 anti-mouse antibodies); Alexa Fluor 488-MalBSA or Alexa Fluor 568-CRT at 1, 5 and 10 µg/mL (30 min); MFI ratio
[2] = target: acetylated BSA (AcBSA) (bovine (from the name BSA)) (UniProt P02769); assay: SPR; AcBSA immobilized (900 RU, CM5, amine coupling; BSA as reference surface), serially diluted SREC-II(44-442) or SR-F1(20-421) injected; TBS-Ca-P; 20 µL/min; 25 °C; global fit, 1:1 Langmuir model; apparent KD

SREC‐II(44‐442), extracellular domain of scavenger receptor expressed by endothelial cells II, sequence (Q96GP6 other isoform, or with tags, fused parts or gaps): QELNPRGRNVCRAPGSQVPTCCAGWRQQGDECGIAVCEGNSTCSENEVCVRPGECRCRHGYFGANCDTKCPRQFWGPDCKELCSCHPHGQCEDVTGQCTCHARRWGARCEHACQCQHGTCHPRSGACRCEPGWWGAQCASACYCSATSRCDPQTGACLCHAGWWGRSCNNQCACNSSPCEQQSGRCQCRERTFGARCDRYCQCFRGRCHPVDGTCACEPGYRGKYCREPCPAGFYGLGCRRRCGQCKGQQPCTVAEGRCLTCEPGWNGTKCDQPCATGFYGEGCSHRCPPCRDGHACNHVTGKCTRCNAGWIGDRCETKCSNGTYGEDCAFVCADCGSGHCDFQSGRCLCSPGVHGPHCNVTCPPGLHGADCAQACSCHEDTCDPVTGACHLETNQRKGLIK
Alexa Fluor 488‐labelled MalBSA, sequence (P02769 25-607): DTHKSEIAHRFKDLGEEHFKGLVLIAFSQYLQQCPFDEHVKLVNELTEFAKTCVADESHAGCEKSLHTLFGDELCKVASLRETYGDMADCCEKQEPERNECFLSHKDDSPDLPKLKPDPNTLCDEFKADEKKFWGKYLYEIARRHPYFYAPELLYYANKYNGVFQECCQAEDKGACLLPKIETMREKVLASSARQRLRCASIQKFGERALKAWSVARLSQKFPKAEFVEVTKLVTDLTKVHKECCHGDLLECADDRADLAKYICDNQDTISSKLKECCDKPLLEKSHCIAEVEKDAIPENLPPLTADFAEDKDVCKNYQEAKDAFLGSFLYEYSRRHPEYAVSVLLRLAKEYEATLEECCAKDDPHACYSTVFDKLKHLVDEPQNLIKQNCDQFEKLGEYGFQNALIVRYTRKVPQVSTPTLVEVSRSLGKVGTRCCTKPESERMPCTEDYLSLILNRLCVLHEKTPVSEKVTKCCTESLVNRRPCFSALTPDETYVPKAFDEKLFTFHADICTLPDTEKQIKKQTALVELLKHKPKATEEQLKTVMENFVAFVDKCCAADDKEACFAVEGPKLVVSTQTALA
full‐length SREC‐II at the surface of stably transfected CHO cells, sequence (Q96GP6 44-871): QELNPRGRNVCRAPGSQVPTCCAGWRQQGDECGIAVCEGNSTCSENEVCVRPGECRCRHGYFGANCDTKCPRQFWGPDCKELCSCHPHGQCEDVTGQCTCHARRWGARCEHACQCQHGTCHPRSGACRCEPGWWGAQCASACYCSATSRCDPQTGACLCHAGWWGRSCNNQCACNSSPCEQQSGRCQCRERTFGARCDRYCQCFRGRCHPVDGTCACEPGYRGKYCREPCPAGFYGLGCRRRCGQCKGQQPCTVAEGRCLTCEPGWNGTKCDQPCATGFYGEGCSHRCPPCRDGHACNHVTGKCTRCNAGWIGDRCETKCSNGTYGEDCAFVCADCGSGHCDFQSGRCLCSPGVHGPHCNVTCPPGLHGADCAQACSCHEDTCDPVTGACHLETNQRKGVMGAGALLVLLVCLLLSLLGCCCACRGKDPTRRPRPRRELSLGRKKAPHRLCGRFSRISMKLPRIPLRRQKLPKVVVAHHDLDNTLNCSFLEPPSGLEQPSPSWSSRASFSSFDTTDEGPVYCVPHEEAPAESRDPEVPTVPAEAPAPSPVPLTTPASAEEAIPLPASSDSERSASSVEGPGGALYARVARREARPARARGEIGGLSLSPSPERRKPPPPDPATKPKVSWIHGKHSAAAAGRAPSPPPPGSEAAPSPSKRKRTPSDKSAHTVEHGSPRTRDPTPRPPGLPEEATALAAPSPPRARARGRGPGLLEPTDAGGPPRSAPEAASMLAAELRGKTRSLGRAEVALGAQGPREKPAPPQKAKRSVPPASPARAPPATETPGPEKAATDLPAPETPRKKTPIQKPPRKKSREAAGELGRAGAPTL

increase in binding compared with nontransfected CHO cells [1] [%]	Kd [2] [nM]	koff [2] [s⁻¹]	kon [2] [M⁻¹ s⁻¹]	Substance
40 to 50	–	–	–	Alexa Fluor 488‐labelled MalBSA (from UniProt P02769 25-607)
–	200	0.00015	7800	SREC‐II(44‐442), extracellular domain of scavenger receptor expressed by endothelial cells II (from UniProt Q96GP6 44-442) (domain or fragment)
